The target in this data set is Staphylococcus aureus thioredoxin (Trx) (UniProt P0A0K6).

This passage reports A412 (DTNB titration of free SH groups formed in insulin), complete reaction: NADPH + Trx + TrxB + insulin, A412 (DTNB titration of free SH groups formed in insulin), control with NADPH omitted: Trx + TrxB + insulin and A412 (DTNB titration of free SH groups formed in insulin), control with Trx omitted: NADPH + TrxB + insulin results from patent US20040161809.

Chain of Staphylococcus aureus thioredoxin (Trx) (P0A0K6 whole entry): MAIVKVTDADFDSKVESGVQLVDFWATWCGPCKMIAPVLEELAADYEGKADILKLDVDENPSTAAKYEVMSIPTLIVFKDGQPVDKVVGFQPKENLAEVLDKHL

Turning to “Staphylococcus aureus thioredoxin reductase (TrxB)”, the A412 (DTNB titration of free SH groups formed in insulin), complete reaction: NADPH + Trx + TrxB + insulin came to 0.816 A412; the A412 (DTNB titration of free SH groups formed in insulin), control with NADPH omitted: Trx + TrxB + insulin came out at 0.15 A412; the A412 (DTNB titration of free SH groups formed in insulin), control with Trx omitted: NADPH + TrxB + insulin stood at 0.493 A412.
